Test results reported in patent US20210380994A1, “LACTOCOCCUS LACTIS EXPRESSION SYSTEM FOR DELIVERING PROTEINS EFFICACIOUS FOR THE TREATMENT OF EPITHELIAL BARRIER FUNCTION DISORDERS” (Second Genome, Inc., priority 2018, published 2021).
Where two headings read alike, the source gives them in different places.

B1: SG-11: Roseburia hominis protein comprising SEQ ID NO:3; tested as SEQ ID NO:5, SEQ ID NO:7 or FLAG-tagged SEQ ID NO:9 (protein, listed as Rosburia hominis)
chain: LEGEESVVYVGKKGVIASLDVETLDQSYYDETELKSYVDAEVEDYTAEHGKNAVKVESLKVEDGVAKLKMKYKTPEDYTAFNGIELYQGKVVASLAAGYVYDGEFARVEEGKVVGAATKQDIYSEDDLKVAIIRANTDVKVDGEICYVSCQNVKLTGKDSVSIRDGYYLETGSVTASVDVTGQESVGTEQLSGTEQMEMTGEPVNADDTEQTEAAAGDGSFETDVYTFIVYK
B2: SG-11V5: variant of SEQ ID NO:7 with N53S, N83S, C147V, C151S (protein)
chain: MLEGEESVVYVGKKGVIASLDVETLDQSYYDETELKSYVDAEVEDYTAEHGKSAVKVESLKVEDGVAKLKMKYKTPEDYTAFSGIELYQGKVVASLAAGYVYDGEFARVEEGKVVGAATKQDIYSEDDLKVAIIRANTDVKVDGEIVYVSSQNVKLTGKDSVSIRDGYYLETGSVTASVDVTGQESVGTEQLSGTEQMEMTGEPVNADDTEQTEAAAGDGSFETDVYTFIVYK
modifications: Artificial variant of SG-11 (N53S, N83S, C147V, C151S)

How the values were obtained:
[1] = system: C57BL/6 mice treated with DSS; test: therapeutic DSS model of inflammatory bowel disease, treatment after 7 days DSS (Examples 5, 13B); type: in vivo; details: for body weight change: 50 nmoles/kg, day 11, p<0.05; for colon weight to length ratio: p<0.01
Description: Following a 7-day acclimation period, the mice were provided with drinking water containing 2.5% DSS for 7 days. Fresh 2.5% DSS water was prepared every 2 days during the 7 day DSS administration. For this therapeutic DSS study, SG-11 used to treat the animals was fused at its N-terminus to a FLAG Tag (DYKDDDDK; SEQ ID NO:32).
On day 7, normal drinking water was restored and i.p. treatments of 50 nmole/kg of SG-11 ([…]) or Gly2-GLP2 (0.2 mg/kg) were initiated. Treatments were administered twice a day (b.i.d.), with a morning and evening dose (every 8 and 16 hours) for six days.
Body weight was measured daily during the morning treatment. The colon tissue was then harvested and length was measured in centimeters and the tissue was weighed. Fecal material was flushed from the colon and residual PBS removed by gently running the colon tissue through a pair of forceps. The colon tissue was then weighed and colon weight to length ratio in mg/mm was determined. Following weight measurements proximal and distal colon tissue was banked for RNA and protein analysis and the remaining tissues was fixed in 10% neutral buffered formalin for histopathology. Statistical analysis was performed by a one-way ANOVA compared to DSS+vehicle for serum 4KDa-FITC translocation, scrum LBP concentrations, colon length, and colon weight to length ratio, while a two-way ANOVA was performed for analysis of body weight. In all analysis, a Fisher's LSD test for multiple comparisons was used. Graphs represent data pooled from two experiments, and are plotted as mean±SEM.
Histopathology analysis was performed on proximal and distal colon tissues from the therapeutic DSS model described above. Proximal (FIG. 13A) and distal (FIG. 13B) colon scores (range 0-4) are presented as well as the total score for the colon which represents the sum of proximal and distal colon scores (Range 0-8) (FIG. 13C). LMA=Loss of mucosal architecture, Edema=Edema, INF=Inflammation, TMI=Transmural inflammation, MH=Mucosal hyperplasia, DYS=Dysplasia. Graphs represent data pooled from two independent experiments, and are plotted as mean±SEM. Statistical analysis was performed by a one-way ANOVA compared to DSS+vehicle followed by a Fisher's LSD test for multiple comparisons.
In the second experiment (Example 13B), mice were provided with drinking water containing 2.5% DSS for 7 days. […] Treatments were administered twice a day (b.i.d.), with a morning and evening dose (every 8 and 16 hours) for 4 days. For both the prophylactic and therapeutic models, fresh 2.5% DSS water was prepared every 2 days during the DSS administration.
At the end of each DSS model study, mice were fasted for 4 hours and then orally gavaged with 600 mg/kg 4KDa dextran labeled with FITC [4KDa-FITC]. One hour after the 4KDa-FITC gavage, mice were euthanized, blood was collected, and FITC signal was measured in serum. […] Data in both graphs are plotted as mean±SEM and each figure represent data from an individual experiment (n=10 per group).
Upon completion of the OSS models above. LBP levels were measured as an inflammation centric readout of barrier function following the protocol detailed in Example 5. Upon completion of both DSS models (Examples 13A and 13B), blood was collected and serum was isolated. LPS binding protein (LBP) levels were measured in serum using a commercially available ELISA Kit (Enzo Lift Sciences).

[2] = stability by analytical size exclusion chromatography and Ellman's reagent assay (Example 9); type: physicochemical
Description: The stability of SG-11 (SEQ ID NO:9) was evaluated following the incubation at 37° C. for one week and at 4° C. for 3 weeks in Buffer C (100 mM sodium phosphate, pH 7.0, 0.5 M sorbitol). The stability was assessed by monitoring aggregation formation with analytical size exclusion chromatography (SEC) equilibrated with Buffer D (100 mM sodium phosphate, pH 7.0, 10% glycerol). […] The cause of the aggregation was investigated as follows. There are two cysteine residues found in SG-11 at positions 147 and 151 (relative to SEQ ID NO:7). […] As free sulphydryl groups could cause aggregation by forming unpreferable intermolecular disulfide bonds, it was examined whether the presence of reducing agent, such as β-mercaptoethanol, could prevent the aggregation.

[3] = PTM of SG-11 versus SG-11V5 after storage, LC-MS/MS (Example 10); type: physicochemical
Description: For this analysis, PTMs of wildtype SG-11 (SEQ ID NO:7) and SG-11V5 (SEQ ID NO:19) were compared. In the first analysis (results provided in Table 10 below), the proteins were stored at a concentration of 1 mg/ml in Buffer 1 (50 mM NaPO4, pH 8, 150 mM NaCl, 10% glycerol) and stored for 2 weeks at either 4° C. or 40° C. The proteins were then treated with DTT and Iodoacetamide (IAA), followed by trypsin digestion. The digested samples were then analyzed by Waters ACQUITY UPLC couples to Xevo G2-XS QTOF mass spectrometer using a Protein BEH C18 column.
In a second analysis, the SG-11 (SEQ ID NO:7) and SG-11V5 (SEQ ID NO:19) proteins were each stored at 40° C. in a variety of buffers. The storage buffer used in this experiment was 100 mM NaPO4, pH7, with 10% sorbitol (+Sor) or without 10% sorbitol (−Sor) and with 10% glycerol (+Gly) or without 10% glycerol (−Gly) as indicated in Table 11. […] There were also differences in levels of N137 deamidation for the two proteins with the presence of at least glycerol and also the presence of both sorbitol and glycerol resulting in large decreases in N137 deamidation.

[4] = for precipitation: pH 5.2
Description: Effect of additives was also tested at the 3 different pH conditions: 150 mM NaCl (FIGS. 15A, 15D and 15G); 150 mM NaCl and 100 mM arginine (FIGS. 15B, 15E and 15H): and 150 mM NaCl and 0.5 M sorbitol (FIGS. 15C, 15F and 15I). Stability was analyzed by analytical SEC.
Effect of additives was also tested at the 3 different pH conditions: 150 mM NaCl (FIGS. 16A, 16D and 16G); 150 mM NaCl and 100 mM Arg (FIGS. 16B, 16E and 16H); and 150 mM NaCl and 0.5 M sorbitol (FIGS. 16C, 16F and 16I). Stability was analyzed by analytical SEC.

[5] = Example 5, 50 nmole/kg i.p. b.i.d. six days after 7 days DSS
[6] = Example 13B, 50 nmole/kg i.p. b.i.d. 4 days after 7 days DSS
[7] = 1 mg/ml in Buffer 1 (50 mM NaPO4, pH 8, 150 mM NaCl, 10% glycerol), 2 weeks at 4° C.
[8] = 1 mg/ml in Buffer 1, 2 weeks at 4° C.
[9] = 1 mg/ml in Buffer 1, 2 weeks at 40° C.
[10] = 40° C., 100 mM NaPO4, pH7, + Sor − Gly
[11] = 40° C., 100 mM NaPO4, pH7, + Sor − Sly (so in the source)
[12] = 40° C., 100 mM NaPO4, pH7, − Sor − Gly (first column)
[13] = 40° C., 100 mM NaPO4, pH7, − Sor − Gly (third column as printed)

| Molecule | colon length ([1]; Example 13B (FIG. 22B)) | serum LBP [1, 6] | body weight change ([1]; Example 13B) | colon weight to length ratio ([1]; Example 13B) | Oxidation of M1 [3, 7] [%] | Deamidation of N137 [3, 8] [%] | Deamidation of N137 [3, 9] [%] | Oxidation of M1 [3, 9] [%] | Deamidation of N137 [3, 10] [%] | Oxidation of M1 [3, 10] [%] | Deamidation of N137 [3, 11] [%] | Oxidation of M1 [3, 11] [%] | Deamidation of N137 [3, 12] [%] | Oxidation of M1 [3, 12] [%] | Deamidation of N137 [3, 13] [%] | Oxidation of M1 [3, 13] [%] | precipitation [4] | other results |
| --- | --- | --- | --- | --- | --- | --- | --- | --- | --- | --- | --- | --- | --- | --- | --- | --- | --- | --- |
| B1 | significant increase in the colon length | no reduction in LBP | statistically improved body weight changes | significantly improved colon weight to length ratios | 8.9 | 1.0 | 0.9 | 12.5 | 2.6 | 12.1 | 2.5 | 27.8 | 0.9 | 20 | 3.0 | 38.6 | precipitated | histopathology: inflammation and transmural inflammation scores ([1]; Example 5): no change; histopathology: loss of mucosal architecture score ([1]; Example 5): modest, but significant reduction; body weight [1, 5]: significant improvements; colon length [1, 5]: significant improvements; colon weight to length [1, 5]: significant improvements; serum LBP ([1]; Example 5, 50 nmole/kg i.p. b.i.d. six days after 7 days DSS, FLAG-tagged SG-11): no reduction in LBP; frequency of thick colons ([1]; Example 5, DSS+vehicle 88%, p<0.0001): 25%; aggregation by analytical SEC ([2]; 4-days incubation at 37° C. in the presence of 2.5% (v/v) β-mercaptoethanol): greatly suppressed; aggregation formation by analytical SEC ([2]; 4° C. for 3 weeks in Buffer C (100 mM sodium phosphate, pH 7.0, 0.5 M sorbitol), vs freshly thawed protein): No noticeable change; aggregation formation by analytical SEC ([2]; 37° C. for one week in Buffer C): clearly showed aggregation peaks; free sulfhydryl groups (Ellman's reagent assay) ([2]; SG-11 (SEQ ID NO:9)): presence of free sulfhydryl groups; Deamidation of N83 [3, 8]: 19.4%; Deamidation of N83 [3, 9]: 98.1%; Deamidation of N83 [3, 10]: 93.9%; Deamidation of N83 [3, 11]: 87.4%; Deamidation of N83 [3, 12]: 98.1%; Deamidation of N83 [3, 13]: 96.2%; aggregate formation by analytical SEC ([4]; 100 mM arginine at pH 7.0): greatly suppressed |
| B2 | significant increase in the colon length | no reduction in LBP | statistically improved body weight changes | significantly improved colon weight to length ratios | 2.5 | 0.1 | 0.3 | 4.7 | 3.3 | 3.3 | 0.1 | 5.9 | 1.5 | 2.7 | 0.4 | 5.6 | precipitated | aggregation by analytical SEC ([4]; all conditions tested (pH 5.2, 7.0, 8.0; NaCl, arginine, sorbitol)): did not show a large amount of aggregation |
